B1: peptide-HDO conjugate of Example 35 (first nucleic acid strand A2, second nucleic acid strand C27) (peptide)
peptide: AVFVWNYYIIRRYYC
modifications: MeF at 3, MeY at 14 (N-methyl); thioether ring from N-terminal chloroacetyl-Ala to Cys 15; C-terminal Gly-KN3-NH2, azide joined to BCN on the oligonucleotide
notes: also called A2/C27
B2: peptide-HDO conjugate of Example 36 (first nucleic acid strand A2, second nucleic acid strand C28) (peptide)
peptide: AVFVWNYYIIRRYYC
modifications: MeF at 3, MeY at 14 (N-methyl); thioether ring from N-terminal chloroacetyl-Ala to Cys 15; C-terminal Gly-KN3-NH2, azide joined to BCN on the oligonucleotide
notes: also called A2/C28
B3: peptide-HDO conjugate of Example 37 (first nucleic acid strand A2, second nucleic acid strand C29) (peptide)
peptide: AVFVWNYYIIRRYYC
modifications: MeF at 3, MeY at 14 (N-methyl); thioether ring from N-terminal chloroacetyl-Ala to Cys 15; C-terminal Gly-KN3-NH2, azide joined to BCN on the oligonucleotide
notes: also called A2/C29
B4: peptide-HDO conjugate of Example 38 (first nucleic acid strand A2, second nucleic acid strand C30) (peptide)
peptide: AVFVWNYYIIRRYYC
modifications: MeF at 3, MeY at 14 (N-methyl); thioether ring from N-terminal chloroacetyl-Ala to Cys 15; C-terminal Gly-KN3-NH2, azide joined to BCN on the oligonucleotide
notes: also called A2/C30
B5: peptide-HDO conjugate of Example 39 (first nucleic acid strand A2, second nucleic acid strand C31) (peptide)
peptide: AVFVWNYYIIRRYYC
modifications: MeF at 3, MeY at 14 (N-methyl); thioether ring from N-terminal chloroacetyl-Ala to Cys 15; C-terminal Gly-KN3-NH2, azide joined to BCN on the oligonucleotide
notes: also called A2/C31
B6: peptide-HDO conjugate of Example 40 (first nucleic acid strand A2, second nucleic acid strand C32) (peptide)
peptide: AVFVWNYYIIRRYYC
modifications: MeF at 3, MeY at 14 (N-methyl); thioether ring from N-terminal chloroacetyl-Ala to Cys 15; C-terminal Gly-KN3-NH2, azide joined to BCN on the oligonucleotide
notes: also called A2/C32
B7: peptide-HDO conjugate of Example 41 (first nucleic acid strand A2, second nucleic acid strand C33) (peptide)
peptide: AVFVWNYYIIRRYYC
modifications: MeF at 3, MeY at 14 (N-methyl); thioether ring from N-terminal chloroacetyl-Ala to Cys 15; C-terminal Gly-KN3-NH2, azide joined to BCN on the oligonucleotide
notes: also called A2/C33
B8: peptide-HDO conjugate of Example 42 (first nucleic acid strand A1, second nucleic acid strand C42) (peptide)
peptide: AVFVWNYYIIRRYYC
modifications: MeF at 3, MeY at 14 (N-methyl); thioether ring from N-terminal chloroacetyl-Ala to Cys 15; C-terminal Gly-KN3-NH2, azide joined to BCN on the oligonucleotide
notes: also called A1/C42
B9: peptide-HDO conjugate of Example 43 (first nucleic acid strand A2, second nucleic acid strand C42) (peptide)
peptide: AVFVWNYYIIRRYYC
modifications: MeF at 3, MeY at 14 (N-methyl); thioether ring from N-terminal chloroacetyl-Ala to Cys 15; C-terminal Gly-KN3-NH2, azide joined to BCN on the oligonucleotide
notes: also called A2/C42
B10: peptide-HDO conjugate of Example 44 (first nucleic acid strand A1, second nucleic acid strand C44) (peptide)
peptide: AVFVWNYYIIRRYYC
modifications: MeF at 3, MeY at 14 (N-methyl); thioether ring from N-terminal chloroacetyl-Ala to Cys 15; C-terminal Gly-KN3-NH2, azide joined to BCN on the oligonucleotide
notes: also called A1/C44
B11: peptide-HDO conjugate of Example 45 (first nucleic acid strand A1, second nucleic acid strand C45) (peptide)
peptide: AVFVWNYYIIRRYYC
modifications: MeF at 3, MeY at 14 (N-methyl); thioether ring from N-terminal chloroacetyl-Ala to Cys 15; C-terminal Gly-KN3-NH2, azide joined to BCN on the oligonucleotide
notes: also called A1/C45
B12: peptide-HDO conjugate of Example 46 (first nucleic acid strand A2, second nucleic acid strand C44) (peptide)
peptide: AVFVWNYYIIRRYYC
modifications: MeF at 3, MeY at 14 (N-methyl); thioether ring from N-terminal chloroacetyl-Ala to Cys 15; C-terminal Gly-KN3-NH2, azide joined to BCN on the oligonucleotide
notes: also called A2/C44
B13: peptide-HDO conjugate of Example 4 (first nucleic acid strand A1, second nucleic acid strand C4) (peptide)
peptide: AVFVWNYYIIRRYYC
modifications: MeF at 3, MeY at 14 (N-methyl); thioether ring from N-terminal chloroacetyl-Ala to Cys 15; C-terminal Gly-KN3-NH2, azide joined to BCN on the oligonucleotide
notes: also called A1/C4
B14: peptide-HDO conjugate of Example 47 (first nucleic acid strand A1, second nucleic acid strand C47) (peptide)
peptide: AVFVWNYYIIRRYYC
modifications: MeF at 3, MeY at 14 (N-methyl); thioether ring from N-terminal chloroacetyl-Ala to Cys 15; C-terminal Gly-KN3-NH2, azide joined to BCN on the oligonucleotide
notes: also called A1/C47
B15: peptide-HDO conjugate of Example 48 (first nucleic acid strand A2, second nucleic acid strand C47) (peptide)
peptide: AVFVWNYYIIRRYYC
modifications: MeF at 3, MeY at 14 (N-methyl); thioether ring from N-terminal chloroacetyl-Ala to Cys 15; C-terminal Gly-KN3-NH2, azide joined to BCN on the oligonucleotide
notes: also called A2/C47
B16: peptide-HDO conjugate of Example 49 (first nucleic acid strand A1, second nucleic acid strand C49) (peptide)
peptide: AVFVWNYYIIRRYYC
modifications: MeF at 3, MeY at 14 (N-methyl); thioether ring from N-terminal chloroacetyl-Ala to Cys 15; C-terminal Gly-PEG4c-KN3-NH2, azide joined to BCN on the oligonucleotide
notes: also called A1/C49
B17: peptide-HDO conjugate of Example 50 (first nucleic acid strand A1, second nucleic acid strand C50) (peptide)
peptide: AVFVWNYYIIRRYYC
modifications: MeF at 3, MeY at 14 (N-methyl); thioether ring from N-terminal chloroacetyl-Ala to Cys 15; C-terminal Gly-PEG12c-KN3-NH2, azide joined to BCN on the oligonucleotide
notes: also called A1/C50
B18: peptide-HDO conjugate of Example 52 (first nucleic acid strand A2, second nucleic acid strand C49) (peptide)
peptide: AVFVWNYYIIRRYYC
modifications: MeF at 3, MeY at 14 (N-methyl); thioether ring from N-terminal chloroacetyl-Ala to Cys 15; C-terminal Gly-PEG4c-KN3-NH2, azide joined to BCN on the oligonucleotide
notes: also called A2/C49
B19: peptide-HDO conjugate of Example 53 (first nucleic acid strand A2, second nucleic acid strand C50) (peptide)
peptide: AVFVWNYYIIRRYYC
modifications: MeF at 3, MeY at 14 (N-methyl); thioether ring from N-terminal chloroacetyl-Ala to Cys 15; C-terminal Gly-PEG12c-KN3-NH2, azide joined to BCN on the oligonucleotide
notes: also called A2/C50
B20: peptide-HDO conjugate of Example 55 (first nucleic acid strand A4, second nucleic acid strand C55) (peptide)
peptide: AVFVWNYYIIRRYYC
modifications: not fully specified; MeF at 3, MeY at 14 (N-methyl); thioether ring from N-terminal chloroacetyl-Ala to Cys 15; C-terminal Gly-KN3-NH2, azide joined to BCN on the oligonucleotide
notes: also called A4/C55
B21: peptide-HDO conjugate of Example 56 (first nucleic acid strand A4, second nucleic acid strand C56) (peptide)
peptide: AVFVWNYYIIRRYYC
modifications: not fully specified; MeF at 3, MeY at 14 (N-methyl); thioether ring from N-terminal chloroacetyl-Ala to Cys 15; C-terminal Gly-KN3-NH2, azide joined to BCN on the oligonucleotide
notes: also called A4/C56
B22: Y10-PMO conjugate of Example 57 (peptide)
peptide: AVFVWNYYIIRRYYC
chain: RRRA
modifications: not fully specified; N-terminal BCN-AEEA; C-terminal beta-Ala coupled to the 3' end of PMO A1; MeF at 3, MeY at 14 (N-methyl); thioether ring from N-terminal chloroacetyl-Ala to Cys 15; C-terminal Gly-KN3-NH2, azide joined to BCN of the linker peptide
B23: Y13-PMO conjugate of Example 60 (peptide)
peptide: AVFVWNYYIIRRYYC
chain: RRRG
modifications: not fully specified; N-terminal 4-pentynoyl-AEEA; C-terminal Gly coupled to PMO A4; MeF at 3, MeY at 14 (N-methyl); thioether ring from N-terminal chloroacetyl-Ala to Cys 15; C-terminal Gly-KN3-NH2, azide joined by copper-catalysed click to the 4-pentynoyl group of the linker …
B24: Y11-PMO conjugate of Example 58 (peptide)
peptide: AVFVWNYYIIRRYYC
chain: GGGEEESSC
modifications: not fully specified; N-terminal BCN; C-terminal amide; tBuS removed from Cys, Cys thiol joined to 3-maleimide propionyl A1; MeF at 3, MeY at 14 (N-methyl); thioether ring from N-terminal chloroacetyl-Ala to Cys 15; C-terminal Gly-KN3-NH2, azide joined to BCN of the linker peptide
B25: Y14-PMO conjugate of Example 61 (peptide)
peptide: AVFVWNYYIIRRYYC
chain: KKKG
modifications: not fully specified; N-terminal 4-pentynoyl-AEEA; ivDde groups on the three Lys removed with hydrazine; C-terminal Gly coupled to PMO A4; MeF at 3, MeY at 14 (N-methyl); thioether ring from N-terminal chloroacetyl-Ala to Cys 15; C-terminal Gly-KN3-NH2, azide joined by copper-catalysed click to the 4-pentynoyl group of the linker …
B26: peptide-HDO conjugate of Example 6 (first nucleic acid strand A1, second nucleic acid strand C6) (peptide)
peptide: AVFVWNYYIIRRYYC
modifications: MeF at 3, MeY at 14 (N-methyl); thioether ring from N-terminal chloroacetyl-Ala to Cys 15; C-terminal Gly-KN3-NH2, azide joined to BCN on the oligonucleotide
notes: also called A1/C6
B27: peptide-HDO conjugate of Example 7 (first nucleic acid strand A1, second nucleic acid strand C7) (peptide)
peptide: AVFVWNYYIIRRYYC
modifications: MeF at 3, MeY at 14 (N-methyl); thioether ring from N-terminal chloroacetyl-Ala to Cys 15; C-terminal Gly-KN3-NH2, azide joined to BCN on the oligonucleotide
notes: also called A1/C7

Target: T1, human transferrin receptor (hTfR) (human, UniProt P02786 89-760, limits assumed)
T1 construct: 0.5 uM hTfR solution immobilised on a Ni-NTA chip with EDC/NHS; source and construct are not described; also called human TfR
Test: SPR, hTfR immobilised on NTA chip, single cycle kinetics; A = KD less than 100 nM
Description: The various synthesized peptide-nucleic acid conjugates were tested for intermolecular interaction by surface plasmon resonance (SPR) of the peptide-nucleic acid conjugate with transferrin receptor (hTfR) using the method shown below. The specific test method is shown below.
NTA sensor chip (Global Life Science Technologies Japan Co., Ltd.) was inserted into Biacore T200 (Global Life Science Technologies Japan Co., Ltd.), prime operation was performed three times with running buffer: 10 mM HEPES pH 8.0 (Nacalai Tesque Co., Ltd.), 150 mM NaCl (Nacalai Tesque Co., Ltd.), 0.05% Tween 20 (Nacalai Tesque Co., Ltd.), 0.1% BSA (SIGMA-ALDRICH), and 1.0% DMSO (FUJIFILM Wako Pure Chemical Corporation), and equilibrated at a flow rate of 30 μL/min. 350 mM EDTA solution was reacted for 60 seconds at a flow rate of 10 μL/min, 0.5 mM NiCl₂ solution (Kishida Chemical) was reacted for 60 seconds at a flow rate of 10 μL/min, and the NTA sensor chip was washed with 3 mM EDTA solution (Nacalai Tesque Co., Ltd.) for 60 seconds at a flow rate of 10 μL/min. After mixing 50 μL each of 60 mM EDC solution (Global Life Science Technologies Japan Co., Ltd.) and 650 mM NHS solution (Global Life Science Technologies Japan Co., Ltd.), the mixture was reacted for 420 seconds at a flow rate of 10 μL/min. 150 μL of a 0.5 μM hTfR solution was prepared by diluting with a running buffer and reacted for 300 seconds at a flow rate of 10 μL/min to immobilize hTfR on the NTA sensor chip. After immobilization, capping was performed by reacting with a 1.0 M ethanolamine aqueous solution (Global Life Science Technologies Japan Co., Ltd.) at a flow rate of 10 μL/min for 420 seconds. A peptide-nucleic acid conjugate solution adjusted to 10 mM in DMSO solution was diluted with running buffer to a final concentration of […] peptide-nucleic acid conjugate solution, and 100 nM, 50 nM, 25 nM, 10 nM, 5 nM peptide-nucleic acid conjugate solutions were prepared. Using the aforementioned samples, the kinetics of the peptide against hTfR was obtained by SPR measurement.
The kinetics evaluation model was Single Cycle Kinetics, and curve fitting was performed using Biacore T200 Evaluation Software Version 3.0 (Global Life Science Technologies Japan Co., Ltd.).

T1 sequence (P02786 89-760 limits assumed): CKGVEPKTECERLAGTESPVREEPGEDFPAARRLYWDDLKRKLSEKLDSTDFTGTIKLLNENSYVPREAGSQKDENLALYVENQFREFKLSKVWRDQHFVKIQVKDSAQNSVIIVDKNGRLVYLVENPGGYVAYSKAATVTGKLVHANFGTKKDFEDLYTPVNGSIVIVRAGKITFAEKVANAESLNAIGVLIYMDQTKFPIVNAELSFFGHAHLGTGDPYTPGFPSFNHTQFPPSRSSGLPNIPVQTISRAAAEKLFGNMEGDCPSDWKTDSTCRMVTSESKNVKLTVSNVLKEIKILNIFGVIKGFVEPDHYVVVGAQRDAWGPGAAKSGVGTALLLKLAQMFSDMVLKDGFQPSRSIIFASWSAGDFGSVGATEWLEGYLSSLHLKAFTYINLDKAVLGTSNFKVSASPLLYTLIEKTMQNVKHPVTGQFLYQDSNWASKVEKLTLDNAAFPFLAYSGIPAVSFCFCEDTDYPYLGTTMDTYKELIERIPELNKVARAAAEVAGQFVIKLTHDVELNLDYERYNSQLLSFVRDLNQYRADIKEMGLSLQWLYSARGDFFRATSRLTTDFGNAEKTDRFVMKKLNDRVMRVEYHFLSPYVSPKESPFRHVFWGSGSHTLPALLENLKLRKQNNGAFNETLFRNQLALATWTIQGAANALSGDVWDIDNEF

| Binder | Kd [nM] |
| --- | --- |
| B1 | < 100 |
| B2 | < 100 |
| B3 | < 100 |
| B4 | < 100 |
| B5 | < 100 |
| B6 | < 100 |
| B7 | < 100 |
| B8 | < 100 |
| B9 | < 100 |
| B10 | < 100 |
| B11 | < 100 |
| B12 | < 100 |
| B13 | < 100 |
| B14 | < 100 |
| B15 | < 100 |
| B16 | < 100 |
| B17 | < 100 |
| B18 | < 100 |
| B19 | < 100 |
| B20 | < 100 |
| B21 | < 100 |
| B22 | < 100 |
| B23 | < 100 |
| B24 | < 100 |
| B25 | < 100 |
| B26 | < 100 |
| B27 | < 100 |

From US20240390508A1 (Takeda / Millennium, published 2024)
